Reference: patent US20040018971A1
One block for each binder: values may come before it.

Key:
[1] = target: T1, HLA-DRB1*1302 (human); test: inhibition of 125I probe peptide binding to purified HLA-DR, gel filtration; details: remark: other sources report otherwise
T1 chain 1: not shown
T1 chain 2: not shown

[2] = target: HLA-A*6802 (human); test: competition with 125I probe peptide for purified HLA; details: remark: other sources report otherwise
[3] = target: T2, HLA-DRB1*0101 (human); test: competition with 125I-labelled standard peptide, purified HLA-DR, gel filtration; details: remark: other sources report otherwise
T2 chain 1: not shown
T2 chain 2: not shown

[4] = target: T2, HLA-DRB1*0101 (human); test: inhibition of 125I probe peptide binding to purified HLA-DR, gel filtration; details: remark: other sources report otherwise
[5] = target: T2, HLA-DRB1*0101 (human); test: competition with 125I probe peptide, purified HLA; details: remark: other sources report otherwise
[6] = target: HLA-A*3101 (human); test: competition with 125I-labelled standard peptide for purified HLA; gel filtration; details: remark: other sources report otherwise
[7] = target: HLA-A*2401 (purified HLA class I molecule) (human); test: competition with 125I-labelled standard peptide for purified HLA, gel filtration; details: scale: ratio
[8] = target: HLA-B*5301 (human); test: competition vs 125I-labeled standard peptide, purified HLA; details: remark: other sources report otherwise
[9] = target: HLA-B*5401 (human); test: as above; details: remark: other sources report otherwise
[10] = target: T3, HLA-DR3 (DRB1*0301) (human); test: competition with 125I-labelled probe peptide on purified HLA-DR, gel filtration; IC50 of standard peptide / IC50 of test peptide; details: remark: other sources report otherwise
T3 chain 1: not shown
T3 chain 2: not shown

[11] = target: T3, HLA-DR3 (DRB1*0301) (human); test: competition binding assay, purified HLA, 125I-labelled probe peptide, gel filtration; details: remark: other sources report otherwise
[12] = target: T4, HLA-DRB1*0301 (human); test: competition with 125I-labeled standard peptide, purified HLA-DR, gel filtration; details: remark: other sources report otherwise
T4 chain 1: not shown
T4 chain 2: not shown

[13] = target: HLA-A*1101 (human); test: inhibition of 125I-labelled probe peptide binding to purified HLA-A*1101, gel filtration; details: remark: other sources report otherwise
[14] = target: HLA-A*0101 (human); test: competition with 125I-labelled probe peptide for purified HLA-A*0101, gel filtration; details: remark: other sources report otherwise; scale: ratio
[15] = target: HLA-A*0301 (human); test: inhibition of 125I-labelled probe peptide binding to purified HLA-A*0301, gel filtration; ratio to standard peptide 941.12 ([..], 11 nM); details: remark: other sources report otherwise
[16] = target: HLA-A*0101 (human); test: competition with 125I-labelled probe peptide for purified HLA-A*0101, gel filtration; relative to standard peptide; details: remark: other sources report otherwise
[17] = target: HLA-A*0101 (purified HLA class I molecule) (human); test: competition with 125I-labelled standard peptide on purified HLA-A*0101, gel filtration; details: remark: other sources report otherwise
[18] = target: HLA-A*0201 (human); test: competitive inhibition of 125I-labeled probe peptide binding to purified HLA-A*0201; details: remark: other sources report otherwise
[19] = target: HLA-A*6802 (human); test: competition for purified HLA vs 125I-labelled probe peptide, gel filtration; details: remark: other sources report otherwise
[20] = target: HLA-A*0101 (human); test: competition with 125I-labelled probe peptide for purified HLA-A*0101, gel filtration; ratio = IC50 of standard peptide 944.02 / IC50 of test peptide; details: remark: other sources report otherwise
[21] = target: HLA-B*0702 (human); test: competition with 125I-labelled probe peptide for purified HLA, gel filtration; details: scale: ratio
[22] = target: HLA-A*0201 (human); test: inhibition of 125I-labelled probe peptide binding to purified HLA, gel filtration; details: remark: other sources report otherwise; scale: ratio
[23] = target: HLA-A*6802 (human); test: competition with 125I-labelled probe peptide for purified HLA, gel filtration; details: remark: other sources report otherwise
[24] = target: T5, HLA-DRB1*1101 (human); test: competition with 125I-labelled standard peptide, purified HLA-DR, gel filtration; details: remark: other sources report otherwise
T5 chain 1: not shown
T5 chain 2: not shown

[25] = target: T5, HLA-DRB1*1101 (human); test: inhibition of 125I probe peptide binding to purified HLA-DR, gel filtration; details: remark: other sources report otherwise
[26] = target: T6, HLA-DRB1*0701 (human); test: as above; details: remark: other sources report otherwise
T6 chain 1: not shown
T6 chain 2: not shown

[27] = target: T6, HLA-DRB1*0701 (human); test: competition with 125I probe peptide, purified HLA; details: remark: other sources report otherwise
[28] = target: T7, HLA-DR3 (human); test: competitive inhibition of 125I-labeled probe peptide binding to purified HLA-DR3; details: remark: other sources report otherwise
T7 chain 1: not shown
T7 chain 2: not shown

[29] = target: HLA-A*0201 (human); test: competition for purified HLA vs 125I-labelled probe peptide, gel filtration; details: remark: other sources report otherwise

B2: Her2/neu.789 … (peptide)
peptide: CLTSTVQLV
- IC50 [2]: 8000 nM

B3: Her2/neu.783 (peptide)
peptide: SRLLGICLTSTVQLV
- IC50 [3]: 14 nM
- IC50 [4]: 14 nM
- IC50 [5]: 14 nM

B7: HER2/neu peptide … (position 969) (peptide)
peptide: FRELVSEFSRMARDP
- relative binding ratio [10]: 0.071
- relative binding ratio (ratio to standard peptide) [11]: 0.071

B10: Her2/neu.789 (peptide)
peptide: CLTSTVQLV
- IC50 [18]: < 500 nM
- IC50 [19]: 8000 nM

B12: Her2/neu.435 (peptide)
peptide: ILHNGAYSL
- IC50 [18]: < 500 nM

B13: HER2/neu peptide, position 941, 11 amino acids (peptide)
peptide: LPQPPICTIDV
modifications: not checked
- relative binding ratio [21]: 0.0032

B14: HER2/neu peptide, position 1172, 9 amino acids (peptide)
peptide: TLSPGKNGV
- relative binding ratio [22]: 0.0002

B19: Her2/neu.767 (peptide)
peptide: ILDEAYVMA
- IC50 [18]: < 500 nM

B21: HER2/neu DR supermotif exemplary peptide … (position 378) (peptide)
peptide: PESFDGDPASNTAPL
- relative binding ratio (ratio (standard IC50 / test IC50)) [12]: -0.0027

B23: Her2/neu.717 (peptide)
peptide: ETELRKVKVLGSGAF
- IC50 [1]: 2500 nM

B24: Her2/neu.666 (peptide)
peptide: VLGVVFGILIKRRQQ
- IC50 [24]: 43 nM
- IC50 [25]: 43 nM

B25: Her2/neu.5 (peptide)
peptide: ALCRWGLLL
- IC50 [18]: < 500 nM

B26: Her2/neu.48 (peptide)
peptide: HLYQGCQVV
- IC50 [18]: < 500 nM

B31: Her2/neu.59 (peptide)
peptide: NLELTYLPTNASLSF
- IC50 [4]: 11 nM
- IC50 [5]: 11 nM

B32: HER2/neu peptide, position 954, 8 amino acids (peptide)
peptide: IMVKCWMI
- relative binding ratio [7]: 0.021

B33: Her2/neu.912 (peptide)
peptide: VWELMTFGAKPYDGI
- IC50 [24]: 3700 nM
- IC50 [3]: 58 nM
- IC50 [25]: 3700 nM
- IC50 [4]: 58 nM
- IC50 [5]: 58 nM

B36: HER2/neu peptide, position 738, 11 amino acids (peptide)
peptide: IWIPDGENVKI
- relative binding ratio [7]: 0.0027

B37: HER2/neu peptide … (position 547) (peptide)
peptide: LQGLPREYVNARHCL
- relative binding ratio (ratio to standard peptide) [11]: -0.0027

B38: HER2/neu peptide, position 851, 9 amino acids (peptide)
peptide: VLVKSPNHV
- relative binding ratio [22]: 0.0002

Further lines, results first:

- IC50 [1]: 73 nM
B1: Her2/neu.648 (peptide)
peptide: ASPLTSIISAVVGIL

- IC50 [6]: 500 nM
B4: Her2/neu.806 (peptide)
peptide: LLDHVRENR

- relative binding ratio [7]: -0.0003
B5: HER2/neu peptide, position 172, 8 amino acids (peptide)
peptide: IFHKNNQL

- IC50 [8]: 490 nM
- IC50 [9]: 29 nM
B6: Her2/neu.921, 8-mer (peptide)
peptide: KPYDGIPA

- relative binding ratio (ratio (standard IC50 / test IC50)) [12]: -0.0027
B8: HER2/neu DR supermotif exemplary peptide … (position 547) (peptide)
peptide: LQGLPREYVNARHCL

- relative binding ratio (IC50 of standard peptide / IC50 of test peptide) (relative binding ratio) [13]: 0.001
- relative binding ratio [14]: 5.5
- relative binding ratio (IC50 of standard peptide / IC50 of test peptide) [15]: 0.0005
- relative binding ratio (IC50 of standard peptide / IC50 of test peptide) (relative binding ratio) [16]: 5.5
- relative binding ratio (IC50 of standard peptide / IC50 of test peptide) [17]: 5.5
B9: HER2/neu peptide, position 1213, 10 amino acids (peptide)
peptide: FSPAFDNLYY

- relative binding ratio (IC50 of standard peptide / IC50 of test peptide) (relative binding ratio) [13]: 0.0005
- relative binding ratio [14]: 2.7
- relative binding ratio (IC50 of standard peptide / IC50 of test peptide) [15]: 0.0003
- relative binding ratio (IC50 of standard peptide / IC50 of test peptide) (relative binding ratio) [16]: 2.7
- relative binding ratio [20]: 2.7
B11: HER2/neu peptide, position 899, 10 amino acids (peptide)
peptide: FTHQSDVWSY

- IC50 [18]: < 500 nM
- IC50 [19]: 2000 nM
- IC50 [23]: 2000 nM
B15: Her2/neu.665 (peptide)
peptide: VVLGVVFGI

- IC50 [4]: 21 nM
- IC50 [5]: 21 nM
B16: Her2/neu.367 (peptide)
peptide: CKKIFGSLAFLPESF

- IC50 [2]: 2000 nM
B17: Her2/neu.665 … (peptide)
peptide: VVLGVVFGI

- relative binding ratio [10]: 0.0083
- relative binding ratio (ratio to standard peptide) [11]: 0.0083
B18: HER2/neu peptide … (position 342) (peptide)
peptide: CYGLGMEHLREVRAV

- relative binding ratio (IC50 of standard peptide / IC50 of test peptide) (relative binding ratio) [16]: 0.0049
B20: HER2/neu peptide, position 279, 11 amino acids (peptide)
peptide: FESMPNPEGRY

- relative binding ratio (ratio (standard IC50 / test IC50)) [12]: 0.027
B22: HER2/neu DR supermotif exemplary peptide … (position 1109) (peptide)
peptide: LQRYSEDPTVPLPSE

- IC50 [6]: 9000 nM
B27: Her2/neu.846.V2 (peptide)
peptide: LVARNVLVK
modifications: not checked

- IC50 [26]: 2500 nM
- IC50 [4]: 22 nM
- IC50 [27]: 2500 nM
- IC50 [5]: 22 nM
B28: Her2/neu.793 (peptide)
peptide: TVQLVTQLMPYGCLL

- relative binding ratio ([21]; remark: other sources report otherwise): 0.0001
B29: HER2/neu peptide, position 246, 9 amino acids (peptide)
peptide: GPKHSDCLA

- relative binding ratio (ratio to standard peptide) [11]: -0.0027
B30: HER2/neu peptide … (position 378) (peptide)
peptide: PESFDGDPASNTAPL

- IC50 [28]: < 1000 nM
B34: Her2/neu.482 (peptide)
peptide: WDQLFRNPHQALLHT

- relative binding ratio (ratio to standard peptide) [11]: 0.027
B35: HER2/neu peptide … (position 1109) (peptide)
peptide: LQRYSEDPTVPLPSE

- IC50 [18]: < 500 nM
- IC50 [29]: 200 nM
B39: Her2/neu.773 (peptide)
peptide: VMAGVGSPYV

- relative binding ratio [22]: 0.0011
B40: HER2/neu peptide, position 444, 10 amino acids (peptide)
peptide: TLQGLGISWL

- IC50 [26]: 86 nM
- IC50 [4]: 28 nM
- IC50 [27]: 86 nM
- IC50 [5]: 28 nM
B41: Her2/neu.422 (peptide)
peptide: LSVFQNLQVIRGRIL
